Earlier results as cited in paper PMC7510350.

Assays:
SufA (Escherichia coli) = SufA (Escherichia coli) (UniProt P77667)
IscA (Escherichia coli) = IscA (Escherichia coli) (UniProt P0AAC8)
UniProt P0AAC8, sequence (P0AAC8 whole entry): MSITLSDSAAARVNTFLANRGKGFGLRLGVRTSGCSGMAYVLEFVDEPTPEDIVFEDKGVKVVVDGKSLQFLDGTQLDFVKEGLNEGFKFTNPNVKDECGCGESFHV

UniProt P77667, sequence (P77667 whole entry): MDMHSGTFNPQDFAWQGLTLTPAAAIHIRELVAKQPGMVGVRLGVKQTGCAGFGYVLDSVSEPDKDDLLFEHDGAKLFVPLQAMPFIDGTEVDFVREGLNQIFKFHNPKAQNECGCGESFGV

- Kd (SufA (Escherichia coli)): 902 µM
- Kd (IscA (Escherichia coli)): 40 µM
Substance: ErpA (from UniProt P0ACC3)
